In patent US12195506B2, “Immunotherapy with A*01 restricted peptides and combination of peptides against cancers and related methods” (Immatics Biotechnologies GmbH, priority 2018, dated 2025) one finds Peptide exchange data, which are given here for 69 substances.

This test addresses HLA-A*01:01 (Homo sapiens, UniProt P04439, A114D/A174V/A182V/D101N/D185E/E176A/E190D/L180R/Q94H/R68K/S129P/T187R/V100A/V91M/W191G). The test is described as follows: MHC binding assay: UV-ligand exchange, ELISA of stabilized MHC complexes (peptide exchange yield). To be noted: binding to HLA-A*01:01, UV-ligand exchange. The source says: Candidate peptides for T cell based therapies according to the present invention were further tested for their MHC binding capacity (affinity). The individual peptide-MHC complexes were produced by UV-ligand exchange, where a UV-sensitive peptide is cleaved upon UV-irradiation and exchanged with the peptide of interest as analyzed. Only peptide candidates that can effectively bind and stabilize the peptide-receptive MHC molecules prevent dissociation of the MHC complexes. To determine the yield of the exchange reaction, an ELISA was performed based on the detection of the light chain (β2m) of stabilized MHC complexes. The assay was performed as generally described in Rodenko et al. (Rodenko et al., 2006)
96 well MAXISorp plates (NUNC) were coated over night with 2 ug/ml streptavidin in PBS at room temperature, washed 4× and blocked for 1 h at 37° C. in 2% BSA containing blocking buffer. Refolded HLA-A*02:01/MLA-001 monomers served as standards, covering the range of 15-500 ng/ml. Peptide-MHC monomers of the UV-exchange reaction were diluted 100-fold in blocking buffer. Samples were incubated for 1 h at 37° C., washed four times, incubated with 2 ug/ml HRP conjugated anti-β2m for 1 h at 37° C., washed again and detected with TMB solution that is stopped with […]. Absorption was measured at 450 nm.
As to “1 (TLDSTRTLY; listed as Homo sapiens) [compound 1]”, the Peptide exchange entry is on record as “++++ (>75% = ++++)”. On to “2 (VDPIGHLY; listed as Homo sapiens) [compound 2]”, for which the Peptide exchange result is “++ (>20% = ++)”. With “3 (FGTTPAAEYF; listed as Homo sapiens) [compound 3]”, the Peptide exchange entry is on record as “++ (>20% = ++)”.

As for “4 (RIEAIRAEY; listed as Homo sapiens) [compound 4]”, the Peptide exchange result is given as “++ (>20% = ++)”. Then “5 (FMVIAGMPLFY; listed as Homo sapiens) [compound 5]”, with “+++ (>50 = +++)”; and “6 (ARDPITFSF; listed as Homo sapiens) [compound 6]”, with “++ (>20% = ++)”; and “7 (ASDDVRIEVGLY; listed as Homo sapiens) [compound 7]”, with “++++ (>75% = ++++)”. For “8 (TSRAANIPGY; listed as Homo sapiens) [compound 8]” the value was “+ (>10% =+)”. On to “9 (QLDSTLDSY; listed as Homo sapiens) [compound 9]”, for which the Peptide exchange result is recorded as “+++ (>50 = +++)”. Turning to “13 (NTHTGTRPY; listed as Homo sapiens) [compound 13]”, the Peptide exchange entry was “++ (>20% = ++)”. For “14 (QSEKEPGQQY; listed as Homo sapiens) [compound 14]” the value was “+++ (>50 = +++)”. Consider “15 (YLDSSKPAVY; listed as Homo sapiens) [compound 15]”, for which the Peptide exchange entry is given as “+++ (>50 = +++)”. As for “16 (NSDISIPEY; listed as Homo sapiens) [compound 16]”, the Peptide exchange result was “+++ (>50 = +++)”.

Consider “17 (ASWAVLCYY; listed as Homo sapiens) [compound 17]”, for which the Peptide exchange result is on record as “+++ (>50 = +++)”. As for “20 (LSAQHRMLA; listed as Homo sapiens) [compound 20]”, the Peptide exchange entry is on record as “++ (>20% = ++)”. For “21 (LSSAVNPIIY; listed as Homo sapiens) [compound 21]” the value was “++ (>20% = ++)”. Then “22 (VMDTLGLFY; listed as Homo sapiens) [compound 22]”, with “++++ (>75% = ++++)”; and “23 (DTDPLKAAGL; listed as Homo sapiens) [compound 23]”, with “+ (>10% =+)”. “25 (AMMQEAQLAY; listed as Homo sapiens) [compound 25]”: the Peptide exchange entry is on record as “+++ (>50 = +++)”. Take “28 (PSEVPVDSHYY; listed as Homo sapiens) [compound 28]”: the Peptide exchange entry is recorded as “+++ (>50 = +++)”. As to “29 (TLEDLDNLYNY; listed as Homo sapiens) [compound 29]”, the Peptide exchange result is listed as “+++ (>50 = +++)”. With “30 (VTTDKPRAY; listed as Homo sapiens) [compound 30]”, the Peptide exchange entry is “++ (>20% = ++)”. For “31 (VSDHLQAGMLGQY; listed as Homo sapiens) [compound 31]” the value was “+++ (>50 = +++)”; for “32 (GTDKQNSTLRY; listed as Homo sapiens) [compound 32]”, “+++ (>50 = +++)”; for “34 (SSWSAGENDSY; listed as Homo sapiens) [compound 34]”, “+++ (>50 = +++)”.

With “35 (SWSAGENDSYS; listed as Homo sapiens) [compound 35]”, the Peptide exchange result is reported as “+ (>10% =+)”. Then “36 (MTSTEQSLY; listed as Homo sapiens) [compound 36]”, with “+++ (>50 = +++)”.

On to “38 (KSWSQSSSLMY; listed as Homo sapiens) [compound 38]”, for which the Peptide exchange entry is “+++ (>50 = +++)”. For “39 (WSQSSSLMY; listed as Homo sapiens) [compound 39]” the value was “++++ (>75% = ++++)”; for “40 (TSDQLGYSY; listed as Homo sapiens) [compound 40]”, “+++ (>50 = +++)”. Regarding “41 (HSDLLEDSKY; listed as Homo sapiens) [compound 41]”, the Peptide exchange entry was “+++ (>50 = +++)”. “43 (ETEPERHLGSY; listed as Homo sapiens) [compound 43]”: the Peptide exchange result is “+++ (>50 = +++)”. For “44 (IPSFNEMVY; listed as Homo sapiens) [compound 44]” the value was “++ (>20% = ++)”; for “45 (NLDPNKIY; listed as Homo sapiens) [compound 45]”, “+ (>10% =+)”. For “46 (RSDPGGGGLAYAAY; listed as Homo sapiens) [compound 46]” the value was “++++ (>75% = ++++)”; for “47 (WSDGVPLLY; listed as Homo sapiens) [compound 47]”, “++++ (>75% = ++++)”; for “48 (FTTQDELLVY; listed as Homo sapiens) [compound 48]”, “+++ (>50 = +++)”. “49 (GSFSIQHTY; listed as Homo sapiens) [compound 49]”: the Peptide exchange entry is recorded as “++ (>20% = ++)”. Then “50 (ITDEDEDMLSY; listed as Homo sapiens) [compound 50]”, with “+++ (>50 = +++)”; and “51 (STEERRLNY; listed as Homo sapiens) [compound 51]”, with “+++ (>50 = +++)”; and “52 (TTQDELLVY; listed as Homo sapiens) [compound 52]”, with “+++ (>50 = +++)”.

For the substance “55 (ATEGDVLNY; listed as Homo sapiens) [compound 55]”, the Peptide exchange result is on record as “+++ (>50 = +++)”. Then “56 (VTEYAEEIYQY; listed as Homo sapiens) [compound 56]”, with “+++ (>50 = +++)”; and “57 (ASDPASSTSCY; listed as Homo sapiens) [compound 57]”, with “+++ (>50 = +++)”; and “58 (YLENSASWY; listed as Homo sapiens) [compound 58]”, with “++++ (>75% = ++++)”.

Regarding “59 (FTDSQGNDIK; listed as Homo sapiens) [compound 59]”, the Peptide exchange result is recorded as “+++ (>50 = +++)”. Then “62 (VSELVTTGHY; listed as Homo sapiens) [compound 62]”, with “+++ (>50 = +++)”; and “63 (TSEISQNALMY; listed as Homo sapiens) [compound 63]”, with “++++ (>75% = ++++)”; and “65 (SSDFDPLVY; listed as Homo sapiens) [compound 65]”, with “++++ (>75% = ++++)”. Then “67 (NVDQNQNSY; listed as Homo sapiens) [compound 67]”, with “+++ (>50 = +++)”; and “68 (QSLPEFGLTY; listed as Homo sapiens) [compound 68]”, with “++ (>20% = ++)”; and “69 (QSLPEFGLTYY; listed as Homo sapiens) [compound 69]”, with “++ (>20% = ++)”. As for “72 (VTDSTTKIAY; listed as Homo sapiens) [compound 72]”, the Peptide exchange entry was “+++ (>50 = +++)”. Then “74 (EMEQQSQEY; listed as Homo sapiens) [compound 74]”, with “++++ (>75% = ++++)”. For “76 (QTDVERIKDTY; listed as Homo sapiens) [compound 76]” the value was “+++ (>50 = +++)”.

Regarding “78 (QLDSAVKNLY; listed as Homo sapiens) [compound 78]”, the Peptide exchange result is reported as “+++ (>50 = +++)”.

“80 (ELCPLPGTSAY; listed as Homo sapiens) [compound 80]”: the Peptide exchange result is reported as “++ (>20% = ++)”.

In the case of “85 (SSDNYEHWLY; listed as Homo sapiens) [compound 85]”, the Peptide exchange entry is recorded as “++++ (>75% = ++++)”. Then “86 (VDPASNTY; listed as Homo sapiens) [compound 86]”, with “++ (>20% = ++)”; and “87 (AFDDIATYF; listed as Homo sapiens) [compound 87]”, with “++ (>20% = ++)”. “88 (KEVDPAGHSYI; listed as Homo sapiens) [compound 88]”: the Peptide exchange entry is given as “++ (>20% = ++)”. As to “89 (EVYDGREHSAY; listed as Homo sapiens) [compound 89]”, the Peptide exchange result is recorded as “++ (>20% = ++)”. As for “90 (YEDHFPLLF; listed as Homo sapiens) [compound 90]”, the Peptide exchange result was “++ (>20% = ++)”. For “92 (TTDDTTAMASAS; listed as Homo sapiens) [compound 92]” the value was “++ (>20% = ++)”; for “93 (HLKILSPIY; listed as Homo sapiens) [compound 93]”, “+++ (>50 = +++)”; for “94 (KPSAVKDSIY; listed as Homo sapiens) [compound 94]”, “++ (>20% = ++)”. Then “95 (SSDPKAVMF; listed as Homo sapiens) [compound 95]”, with “++ (>20% = ++)”; and “97 (FPAPPAHWFY; listed as Homo sapiens) [compound 97]”, with “++ (>20% = ++)”; and “98 (NFSDLVFTY; listed as Homo sapiens) [compound 98]”, with “++ (>20% = ++)”.
